{"source": "the DeepSol protein solubility set", "data": [{"experiment": "soluble on expression in E. coli; label from the status in PepcDB or PDB records", "values": [{"sequence": "MSQPLLAVNGLMMRFGGLLAVNNVSLELREREIVSLIGPNGAGKTTVFNCLTGFYKPTGGTITLRERHLEGLPGQQIARMGVVRTFQHVRLFREMTVIENLLVAQHQQLKTGLFSGLLKTPAFRRAQSEALDRAATWLERIGLLEHANRQASNLAYGDQRRLEIARCMVTQPEILMLDEPAAGLNPKETKELDELIAELRNHHNTTILLIEHDMKLVMGISDRIYVVNQGTPLANGTPEEIRNNPDVIRAYLGEA", "soluble on expression in E. coli": "soluble"}, {"sequence": "MGSDKIHHHHHHMDAVQLKSFVAVAHEGNLTQAAKRLFLSQPAVSAQIKALEEYVGTPLFRRTGKGMVLTRAGEILLPEAESLLQYKHKLEHFAKTLAGDYSEETSLGIIHPIDSAKLVALTDNIGQTAPKTRLHIQYGMSGEILSRIQHKTLHGGFILGNAAQRGIRSVFLQNLTYALICPQSQYPHLTRSLPQSLQECVWIEMSGVSGSRKHLHQFWRSNRLSPKKQILCDYPQTIIDLVAGGIGVAMVPGNKAEAAAKEGAGVAIIESCRHSMPLNFIYAEEYEDNPHVSLLLECIEKVWGVQAVQPPVVSDN", "soluble on expression in E. coli": "not soluble"}, {"sequence": "MGHHHHHHSHHPFVRSAKGVSILRDLINEAMDVKLKRQESQQREVDQDDEENSEEDEMDSGTMVRAVGDEMGTVRVASTMTDGANTMIEHDDTLPSQLGTMVINAEDEEEEGTMKRRDETMQPAKPSFLEYFEQKEKENQINSFGKSVPGPLKNSSDWKIPQDGDYEFLKSWTVEDLQKRLLALDPMMEQEIEEIRQKYQSKRQPILDAIEAKKRRQQNF", "soluble on expression in E. coli": "soluble"}, {"sequence": "MRAIDLNSDLGESFGAWSMGDDAAMLDIVTSANVACGFHAGDPAGILRTLKAAAAKNVTIGAHVSYPDKVGFGRRNMDVASDELTADVIYQIGSLQGLAKAAGTSVRYVKPHGALYNTIAHDRRQAMAVIEAIRAIDPALVLVALAGSTLIELARSEGLQCIAEAFADRAYTPQGTLVSRREPGAVLHDPELVAQRMLRLVQSGSIEAIDGSLVRIEADSICVHGDSPAAVEMARELRRVLEQASTSLQPFAGKRS", "soluble on expression in E. coli": "soluble"}, {"sequence": "MSPKFAADLKKTIYDNMTFDPKHYGGRWNILQDHGTSHLSIVDSERNAVSMTTTVNAYFGSLILSPSTGILLNNEMDDFSMPANTSANSPPPAPANFVRPLKRPLSSMTPTIILKDGNLKAAVGASGGSMIPAGTMEVLLNHFVKNMDPLSSVMAPRVYHQLIPNVVQYENWTTVTGDHFELDAATRADLRRKGHVLEPLAGGTISQLVVDDVERHGGLTAVSDPRKGGFPAGY", "soluble on expression in E. coli": "soluble"}, {"sequence": "MGSDKIHHHHHHMNETVSLETREVRFLSVFDFDGTLTYRDSFVPFLRFAFGNRVFVRRMLRMAGPSLAYLCRRIDRDDLKARLIATFLTDVPVHVLEERALAYQNRFWETLMRPHALTAVADQVSSGSTVTICSASPSLLLRPFAEKLGVHLIATELEVVDGVLTGRIVGRNCRRDEKVCRLERHYGPLTQYSLRAWGDSRGDTELLAAALERFWKPFR", "soluble on expression in E. coli": "not soluble"}, {"sequence": "SEMIVDHRQKAFELLKVDAEKILKLIRVQMDNLTMPQCPLYEEVLDTQMFGLSREIDFAVRLGLVDEKDGKDLLYTLERELSALHDAFTAK", "soluble on expression in E. coli": "not soluble"}, {"sequence": "MGSDKIHHHHHHMKNNTGYIIGAYPCAPSFHQKSEEEETEFWRQLSDTPDIRGLEQPCLEHLHPLGDEWLLRHTPGNWQIVVTAIMETMRRRSENGGFGLASSDEEQRKACVEYYRHLYQKINKINGNNTGKVIALELHAAPLAGNPNVAQATDAFARSLKEIANWDWSCDLVLEHCDAMTGPAPRKGFLPLVNVLETIADYDISVCINWARSAIEGRDTSLPLIHTQQAKQAGKLGALMFSGTTLDGEYGEWQDLHAPFAPFCPQSLMTEKHVKELITAAAPELLQFTGIKLLEINASADINHRINILRDGINMMKKATRR", "soluble on expression in E. coli": "not soluble"}, {"sequence": "MAHHHHHHMGTLEAQTQGPGSMNLDDIGSGSNAPEEVNVVIEVSQDSHPVKYEFDEKNGALWVDRFLPTAMYYPCNYGFIPNTIAGDGDPVDVLVLARFPVMPGAVICVRPVGVLMMNDEKGEDAKVLAVPATKVDQYYGNIVNYSDLPSSFLDSISHFFSFYKKLEKDKFVSVGCWQDAASAKELIRSAIIAAKKGEN", "soluble on expression in E. coli": "soluble"}, {"sequence": "MGSKAKKRVLLPTRPAPPTVEQILEDVRGAPAEDPVFTILAPEDPPVPFRMMEDAEAPGEQLYQQSRAYVAANQRLQQAGNVLRQRCELLQRAGEDLEREVAQMKQAALPAAEAASSG", "soluble on expression in E. coli": "soluble"}, {"sequence": "MGSDKIHHHHHHMAFAMKVISQVEAQRKILEEAVSTALELASGKSDGAEVAVSKTTGISVSTRYGEVENVEFNSDGALGITVYHQNRKGSASSTDLSPQAIARTVQAALDIARYTSPDPCAGVADKELLAFDAPDLDLFHPAEVTPDEAIELAARAEQASLKADKRITNTEGGSFNSHYGIKVFGNSHGMLQGYCSTRHSLSSCVIAEENGDMERDYAYTIGRAMADLQAPEWVGAECARRTLSRLSPRKLSTMKAPVIFANEVATGLFGHLVGAIAGGAVYRKSTFLLDSLGKQILPEWLTIEEHPHLLKGLASSPFDSEGVRTERRDIVKDGVLTQWLLTNYSARKLGLKSTGHAGGIHNWRIAGQGLNFEQLLKEMGTGLVVTELMGQGVSGITGDYSRGAAGFWVENGEIQYPVSEITIAGNLKEMWRNIVTVGDDIETRSNIQCGSVLLPEMKIAGQ", "soluble on expression in E. coli": "not soluble"}, {"sequence": "GSHMTTSSRYKTELCRTYSESGRCRYGAKCQFAHGLGELRQANRHPKYKTELCHKFKLQGRCPYGSRCHFIHNPTED", "soluble on expression in E. coli": "soluble"}, {"sequence": "MKHSHLYELQPDPYDFTQRKTCRVCLFKDVKNAAELSQQLKEGKIDAALIRAELVLEPFVLLAAANRAVHQSAHNRMSCRSLAAELVYSLSPSRNITDSLVTFGIAEHSTAIIAAIFDDDSGKAMKKLAKAIKGTPVPLMEGLPKFANVNMIKKVYQVGNPAFVEEGLSDHIVSRMVSKDFVS", "soluble on expression in E. coli": "not soluble"}, {"sequence": "MSREILTVVETVSNEKGVSREAIFEALEQALVAATKKKFYEGTNAEEAQLRVEIDRKTGDYRTFRQWTLVADEDHEMPACQDAISDVDASKWSIGDVRELEVESIEFGRIAAQIAKQVIVQKIREAERALIADAYESKVGELIYGEVKKQTKDGFIIDLGDNAEAYLAREEMIAKEILRPKQRMNAILYSVNREGRGAQLLLSRARPEMLMALMKKEIPEISEEIIEIKAAARQPGVRAKIAVKTNDHRIDPVGACIGMRGTRIQAVQQELNGERIDVVVWSDDPAQYIASALEPADVSGIVLDEDTRSADIIFATNDQLARAIGSQGQNVRLASELTGYKLDMMLEEEYRARQQNEAQQYLDMFVTRLDIEEDLAMALVEMGFTSLEEIAYVPPETFDEIELDQELVELLQSRAKEAALTDALKQQENVQEPSVELLAMAGMTQELAYALAARGVVTVDDLADQATDDISDIEGLSEEKAGQLIMKARESWFNLEHHHHHH", "soluble on expression in E. coli": "soluble"}, {"sequence": "MKVIKGLTAGLIFLFLCACGGQQIKDPLNYEVEPFTFQNQDGKNVSLESLKGEVWLADFIFTNCETICPPMTAHMTDLQKKLKAGNIDVRIISFSVDPENDKPKQLKKFAANYPLSFDNWDFLTGYSQSEIEEFALKSFKAIVKKPEGEDQVIHQSSFYLVGPDGKVLKDYNGVENTPYDDIISDVKSASTLK", "soluble on expression in E. coli": "soluble"}, {"sequence": "MGSDKIHHHHHHMYTIAIDLGGTVVKIGLLSDGEIVDCVRLPSRLALGLALNLPKIKEAIDRLLAAWRIDVAALRCIGLAFPGLVDPIHNRVISTNEKYDDACSISLDKWAWENWEVPFCMDNDARLAVAGEWWQGAARGKNNVVMMTIGTGIGTGVVIDGRLLYGQHFQAGSLGGHFVLDYKGRRCSCGNKGCVEALSSSFFLPTIIREHALLSESFKRDADIYDFKRIFRLAQEGNTDALLIRNECMDIWASAIITYIHAYDPEVVILGGGILKSQEVIIPYISKRVDELAWCPSGKVPVVPAILGDDAALFGLEYFMVKQQQNERICI", "soluble on expression in E. coli": "not soluble"}, {"sequence": "MIILNIPLFKGLTLEQIEDMKNKHCMTEKKYKKNSFIFRAGDIVHEIGIVLEGSINIEMIDMWDNKSILSNIDVGQIFAESYALCNEPMMVDAVATKDSTILMLNMRQIFAPINNSASWYNTFTYNLLVLSTRKNLTLSTRIFCTSSKSVRGRVLTYLSNQSIKHNNTEFQIPFNRQQMADYLNLDRSALSKELGKMQDEGIITFNKNRFKLNINYDSEF", "soluble on expression in E. coli": "not soluble"}, {"sequence": "MSLQTKILIIDGDKDNCQKLKGFLEEKGISIDLAYNCEEAIGKIFSNKYDLIFLEIILSDGDGWTLCKKIRNVTTCPIVYMTYINEDQSILNALNSGGDDYLIKPLNLEILYAKVKAILRRMNSYVNNNENNTKLEEYNRTSGVIKLEDKIIKLTPTENKLLNFFIENPEKTLTTKEIYEHVWMNEYLEDNYSVVVAVNGLRKKIEKDYKNPQKIITIRGAGYYFNKEGHHHHHH", "soluble on expression in E. coli": "soluble"}, {"sequence": "GDKAYTDAESYTKGLHKIYSVWALSGQDGSSSSDISGLDAGNTALLRCWWTLQEQPTDEMKNAWNDAWCTEVNYMTWTTNKVEPIEGVYQRCMYIVALVNEFLKNIPNAPESIDKESYIAQARFNRAFAYYVLMDMFALPPFITEKNYSIEPAPLSREDLFNWIEAELNEIKPNLPSPRSEYGVADQAVASALLARMYLNAEIYTGKARYTECINACNEVIKAGYQLADNYADLFKADNGENPDTKKEIIYPIIFDGDKTQSWGMAAIIIGARGAEDKDVLLAHSGVDQGWAGFRATSNLVHLFDFQNDEEPKASEIQDKRGIFYDKGRSIDITSSVSGTFETEGWSVFKFSNLNSNGQPGKNTLWVDTDFPMFRLGDIYLMYAEAVARGGEGSKASAVEYINALRKRAYGDDKHNISENWLEENNFRNLLDERGRELYWEGIRRTDLVRFDLLTSGSYTWDFKGGINTGVGVNKRYNVYPIPVTDLTVNGNLQQNEGY", "soluble on expression in E. coli": "soluble"}, {"sequence": "SLIKFLSALILLLVTTAAQAERIRDLTSVQGVRQNSLIGYGLVVGLDGTGDQTTQTPFTTQTLNNMLSQLGITVPTGTNMQLKNVAAVMVTASLPPFGRQGQTIDVVVSSMGNAKSLRGGTLLMTPLKGVDSQVYALAQGNILVGGAGASAGGSSVQVNQLNGGRITNGAVIERELPSQFGVGNTLNLQLNDEDFSMAQQIADTINRVRGYGSATALDARTIQVRVPSGNSSQVRFLADIQNMQVNVTPQDAKVVINSRTGSVVMNREVTLDSCAIAQGNLSVTVNRQANVSQPDTPFGGGQTVVTPQTQIDLRQSGGSLQSVRSSASLNNVVRALNALGATPMDLMSILQSMQSAGCLRAKLEII", "soluble on expression in E. coli": "not soluble"}, {"sequence": "LDFGALPPEINSGRMYCGPGSGPMLAAAAAWDGVAVELGLAATGYASVIAELTGAPWVGAASLSMVAAATPYVAWLSQAAARAEQAGMQAAAAAAAYEAAFVMTVPPPVITANRVLVMTLIATNFFGQNSAAIAVAEAQYAEMWAQDAVAMYGYAAASASASRLIPFAAPPKTTNSAGVVAQVAAVAAMPGLLQRLSSAASVSWSNPNDWWLVRLLGSITPTERTTIVRLLGQSYFATGMAQFFASIAQQLTFGPGGTTAGSGGAWYPTPQFAGLGASRAVSASLARANKIGALSVPPSWVKTTALTESPVAHAVSANPTVGSSHGPHGLLRGLPLGSRITRRSGAFAHRYGFRHSVVARPPSAG", "soluble on expression in E. coli": "not soluble"}, {"sequence": "MLFDHLRDEVMRLDAGITQEVLKLYIAFKAETNFVDVVPQKSRLRLSLNMQFHELVDPKGIAKDVTNVGRWGNGDVEIGFSDLAQLPYIMGLIRQAFEKQMESALV", "soluble on expression in E. coli": "not soluble"}, {"sequence": "MGSDKIHHHHHHMANELKVLEGMDVVALARKHSDQATVSGQVIPWQTSLSFDPSVDSDSTVTKDGNVATRSSASTDLEVEFLNNTAAIADVMYDSLFDGELLDFWILYRKRKNSAGKYYAWYMQVTVQEDSSDNDPDDHSTRDVTFSVNGTPKRGWTTLDDETQEQVDYVFLGVGKVTDTDKTGGGTVWDKDVDPGTNTADTAPAQSSSGTAPAQGGSSTGA", "soluble on expression in E. coli": "not soluble"}]}]}
